Experimental data published in the supplement of paper PMC12764529.
± gives the half width of the 95% confidence interval.

What was measured:
[1] = folding stability dG unfold from trypsin proteolysis; higher = more stable
Description: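 Folding stability of de novo designed mini-proteins (<80 aa, no Cys; designed by TrROS, TrMRF, ProteinMPNN and the joint model) was measured by cDNA display proteolysis with trypsin and chymotrypsin. Each protease was used at 11 concentrations in a threefold dilution series plus a no-protease condition. K50 was inferred by Bayesian fitting of sequencing counts, and dG unfold was derived against a sequence-predicted unfolded-state K50 (Tsuboyama et al. method). Sequences shown include variable-length N-terminal GS-type padding (SAGGSAGG...) inside a display construct carrying a PA tag. Rows were kept only if the AF2 dimer inter-PAE was >15, to exclude likely homo-oligomers.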

[2] = folding stability dG unfold (combined trypsin and chymotrypsin); higher = more stable
Method in brief: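 Only designs with AlphaFold2 dimer inter-PAE above 15 were retained; each was a mini-protein under 80 residues with no cysteine, in a PA-tagged cDNA display construct. After digestion with trypsin and chymotrypsin and sequencing, K50 was inferred by Bayesian fitting of counts, and unfolding free energy was derived per protease or combined against a sequence-predicted unfolded-state K50 and a shared folded-state K50.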

Row | Sequence | folding stability dG unfold [1] | folding stability dG unfold [2]
1 | SAGGSAGGSMPPEELRKKILEDPNVEVLSIEPPGPEVTLITTKYPRETETPTTETVTEKLPVPLSAGGSAGG [r6_154_JUSTAS] | -0.392 ± 0.33 kcal/mol | -0.568 ± 0.33 kcal/mol
2 | SAGGAVTSVSPGNGTTTVTVPISVPGSPVTLNIPTPDATLTPDPSGTVTVTLPPNGTYSITITGPRSDSAGG [r19_227_JUSTAS] | -0.688 ± 0.16 kcal/mol | < -1 kcal/mol
3 | SAGGSAGGSSMPVKVTRTPVPSSAPPSTEFLETVTYPDGTVTTYRFRRDDGSVTSVRVSTSPASAGGSAGGS [r12_1049_JUSTAS] | -0.535 ± 0.71 kcal/mol | < -1 kcal/mol
4 | SAGGSETITIEIEINGAKIKLTFTKNEDGTLTVTAEITLPNGKKLRVTMEFDKKTKEWKITSIEPVSAGGSA [r2_402_TrROS_Hall] | 4.37 ± 0.39 kcal/mol | > 6 kcal/mol
5 | SAGGSAGGSGNPDTPTSPVFVVIEKTTTVVPAPNGLYPKRTSVKISIPGGAAAGAEELIAELLSAGGSAGGS [r12_933_JUSTAS] | -0.2 ± 0.13 kcal/mol | < -1 kcal/mol
6 | AAVIPTPTAEPVKVETLSTEVSPSLFPSPAAGGPRVLRTVVTTKTTVAVQTEDAWVEVETTTTTTEVLPPES [r1_112_JUSTAS] | -0.546 ± 0.21 kcal/mol | < -1 kcal/mol
7 | SAGGSAGGSAGTTTKITEIKELPTDYVELTMKYPDGTTIKKLIPKSIYKDLPVSSTFSGGSAGGSAGGSAGG [r11_943_JUSTAS] | -0.0564 ± 0.14 kcal/mol | < -1 kcal/mol
8 | SAGGSAGGSMKPEVVEEIIKKAEEEGYEIDSVTVNPETNVPVIHFNWPSPELAEKDPELREAASAGGSAGGS [r12_482_TrMRF] | 0.13 ± 0.12 kcal/mol | < -1 kcal/mol
9 | SAGMVTFIDTTPGKAVVAVEDPATGTSRTIELDLDSPDGRPASLEEIKKVVEELVKEERPDLTVDVKLASAG [r5_293_JUSTAS] | -0.506 ± 0.15 kcal/mol | < -1 kcal/mol
10 | SAGGSAGGSAGMTISLSDLTKKGDIEKAKEEVEEIKKKNPEPKVEKVSVPPEKNEIYKLESAGGSAGGSAGG [r11_365_JUSTAS] | -0.308 ± 0.22 kcal/mol | < -1 kcal/mol
11 | SAGEELLREIAKKLNLPEGAEIVKVEIKVEEKDGRLRITITITVRNKETGELKTIEIEIEIELPEEEEESAG [r5_94_TrROS_Hall] | 3.9 ± 0.27 kcal/mol | 4.01 ± 0.43 kcal/mol
12 | SDLRNMPIEELAKRIAREHGIEDVKVEVSRTGDSLTIPIEIRDPEQGMKYKVMIMVDPPDDGRIGIGVERSA [r9_1042_TrROS] | 0.275 ± 0.29 kcal/mol | 0.0221 ± 0.42 kcal/mol
13 | SAGGSAGGEPRELEAEVEVIEFPPTGVALAVIRVNDGAEPRLIPVPFDAPEDVTPEELAKKILGSAGGSAGG [r6_20_TrMRF] | -0.826 ± 0.63 kcal/mol | < -1 kcal/mol
14 | SAGGNYYPMEFRNPENNHEIRITVERDPPGMYRINIQIENPNGNQIPFPMTMPPDDFKPGDEFEIKIPSAGG [r13_959_TrROS] | 0.676 ± 0.16 kcal/mol | 0.213 ± 0.44 kcal/mol
15 | SAGGSAGGSASAPADETLTAELTSPESDERYTVLVTPEGMTAVDEAGRTTPLSPAVLVSVTAPSAGGSAGGS [r20_35_JUSTAS] | 0.862 ± 0.034 kcal/mol | 0.0934 ± 0.075 kcal/mol
16 | SAGGSAGGSGMISKTEVERLPDGTVIERKEYPEGGLTTLKIYKVPPDGVPTLVEEKLVPEKLISAGGSAGGS [r12_695_JUSTAS] | -0.612 ± 0.17 kcal/mol | -0.69 ± 0.24 kcal/mol
17 | SAGGSAGGSMVYVVKVEIPETGEEYEFLNPEDKETVEREVRELFPDPEVKAEIEEIEVEPELLSAGGSAGGS [r12_92_TrMRF] | -0.175 ± 0.15 kcal/mol | < -1 kcal/mol
18 | SAGGSEKLLEEIKEKEFNIPPFIDPKTGKEYPGAKVKVKEAKKIKDTKKIKLIVETPEGKHEFILGSAGGSA [r2_314_TrMRF] | 0.324 ± 0.22 kcal/mol | < -1 kcal/mol
19 | SAGGSAGGSASMTITLPGMSLEEAKAAAEAHPDHPVLLETPEGRLIEITPEGVVTVRPLPESAGGSAGGSAG [r3_269_JUSTAS] | -0.147 ± 0.029 kcal/mol | -0.937 ± 0.17 kcal/mol

Row | Sequence | folding stability dG unfold [1] | folding stability dG unfold [2]
20 | SAGGKIREVEIEEFDPDNGWVMITFNMPPEDLDKMKPIKLPGIKDVHWDPGNDHISASMPLEEAKEASAGGS [r16_614_TrROS] | -0.121 ± 0.17 kcal/mol | -0.5 ± 0.41 kcal/mol
21 | SAGGSAGGSAGMELAEEVARKGKPGTLVTFTPPGGRVQLATVRGDEVTPSGLSPDYSVTLTSAGGSAGGSAG [r3_244_JUSTAS] | -0.371 ± 0.26 kcal/mol | < -1 kcal/mol
22 | SAGGSAGGSAGGGLYNVVVTGKGEERVLPAKSPDDVKEALEEAGLEIKSIHPETGIVEAGSAGGSAGGSAGG [r7_726_TrMRF] | -0.471 ± 0.18 kcal/mol | < -1 kcal/mol
23 | SAGGSAGGSAMTIQINNLPPEKIEEAADDHGIDTQRNEESDSYYIEMPPNDMDEIKEALGWSAGGSAGGSAG [r3_354_TrROS] | 0.725 ± 0.052 kcal/mol | 0.222 ± 0.17 kcal/mol
24 | SPKIEIEPMPPNMFIAKIRDPEKNKKVSIHIPPNMPPGQPMQVYDPDKPKWVPFNEIEELLKKGLPVEIYSA [r9_250_TrROS] | 0.0989 ± 0.23 kcal/mol | -0.496 ± 0.98 kcal/mol
25 | SAGGMKTTFTITHPDAEKAREALEKAVPSDLDVEPEFTPTPDGYTTTVTVPAEHPEVAAAALAAALASAGGS [r16_43_JUSTAS] | 0.0621 ± 0.09 kcal/mol | < -1 kcal/mol
26 | SAGPPNMEPVETHTFPFPGKKIKIKVYRNPDGHVKIKLEDPGKKIEQSAPVPPGEPVEIPIRLPNGKPISAG [r5_878_TrROS] | -0.904 ± 0.52 kcal/mol | < -1 kcal/mol
27 | SAGGSDLITTEETFVGPGGEITLRTTTVDPKTGKTTTTTTTIPVIKGPPSDPAKIEAELKKRGIPLSAGGSA [r2_304_JUSTAS] | -0.186 ± 0.12 kcal/mol | -0.799 ± 0.29 kcal/mol
28 | SAGGANLKIDIERHPGNGNINATIKFDGEEITVPATLSDIEEIIDEIIRVKPVPYYEKDGKLKPHWASAGGS [r8_332_TrROS] | -0.781 ± 0.19 kcal/mol | < -1 kcal/mol
29 | SAGGSAGGKIRILEEEEDPANGERRLMVMVHNPKGKPHQYPVPLDDADEILEHLPPGMPVEIYPSAGGSAGG [r6_113_TrROS] | 0.362 ± 0.097 kcal/mol | -0.514 ± 0.97 kcal/mol
30 | SAGGSAGGSAGKITIHMDPEGNYMVKTPGNERQFDSPEDADELADEFLLNGLPIEIHPHPSAGGSAGGSAGG [r17_35_TrROS] | -0.753 ± 0.36 kcal/mol | < -1 kcal/mol
31 | SAGGSAGGSKKVVTYESVTLTVLVERTLPDPEGNPVTTTRVVEEPVRVTKVDFDTKVETYVVGSAGGSAGGS [r20_58_JUSTAS] | -0.0343 ± 0.14 kcal/mol | -0.623 ± 0.33 kcal/mol
32 | SAGGSASLDIVEELIEEEIKDSKGTKIKILKPIIYYPGKGLVLSNVTVYKPDGTKISTEKKIEPVGSAGGSA [r15_967_JUSTAS] | -0.635 ± 0.25 kcal/mol | < -1 kcal/mol
33 | SAGGSAEPPVKEIAEKLIKKSKKPIIATVVEKKKDGYLVTKVKYIPNTGKPIIKVKKITPEELKKKSAGGSA [r15_156_TrMRF] | 0.159 ± 0.097 kcal/mol | -0.785 ± 0.7 kcal/mol
34 | SAGGSAGGSAKKTAVIELIDPKDPKPKTITIPFDLKDGKTSLEELKKLVPDYTITSIAVFDDSAGGSAGGSA [r18_494_TrMRF] | -0.182 ± 0.15 kcal/mol | < -1 kcal/mol
35 | SAGGSAGGSAGMVFPVDGKEVVIDRGADDALRVTVFGPDGSASEAVFPGKDIPTVLKALSSAGGSAGGSAGG [r11_934_TrMRF] | -0.23 ± 0.24 kcal/mol | < -1 kcal/mol
36 | SAGPKVVKIEFLEDNTAKITVEVGSKPVEVEVPVGSVFLIPGGEKIEVIEPGKAKVSPLPEVDVDPEKSAGG [r19_17_TrMRF] | -0.848 ± 0.33 kcal/mol | < -1 kcal/mol
37 | SMLTSPDGTSVTIETKVSPSAGPLPPFFEQTYDPSKDTITVNAPASPEEVAAIRAAPGLETLAVTFTPAESA [r9_827_JUSTAS] | -0.874 ± 0.23 kcal/mol | < -1 kcal/mol
